Results as given in patent US20220340636A1.

Target: human IR-B overexpressed on NIH 3T3 mouse fibroblast cells (human) (UniProt P06213)
Test: cell-based or functional assay

Substance | fold greater efficiency of Akt phosphorylation than the PTM-free analogue | log [EC50 (nM)], Akt phosphorylation (pAkt Ser473) | fold less active than hIns, Akt phosphorylation assay
sCon-Ins G1 (ligand) | 8 fold | 0.9 log nM | 
Con-Ins G1 (ligand) |  | 0.78 log nM | 10 fold
